Bridges are numbered along the chain shown (N, C = ends). Where no end group is shown, it is not given here. [ ]: non-standard residue; d: D form. The star is where a group is joined. Acetyl(2-(4-imidazolyl)) = O=C(Cc1c[nH]cn1)*; Aib = CC(C)(N)C(=O)O
Tests used:
Assay in all cases: cell-based or functional assay
[1] = target: human GLP-1 receptor (human, UniProt P43220 24-463)
[2] = target: human GCG receptor (human, UniProt P47871 26-477)
[3] = target: T1, human GIP receptor (human, UniProt P48546 22-466)
T1 sequence (looked up): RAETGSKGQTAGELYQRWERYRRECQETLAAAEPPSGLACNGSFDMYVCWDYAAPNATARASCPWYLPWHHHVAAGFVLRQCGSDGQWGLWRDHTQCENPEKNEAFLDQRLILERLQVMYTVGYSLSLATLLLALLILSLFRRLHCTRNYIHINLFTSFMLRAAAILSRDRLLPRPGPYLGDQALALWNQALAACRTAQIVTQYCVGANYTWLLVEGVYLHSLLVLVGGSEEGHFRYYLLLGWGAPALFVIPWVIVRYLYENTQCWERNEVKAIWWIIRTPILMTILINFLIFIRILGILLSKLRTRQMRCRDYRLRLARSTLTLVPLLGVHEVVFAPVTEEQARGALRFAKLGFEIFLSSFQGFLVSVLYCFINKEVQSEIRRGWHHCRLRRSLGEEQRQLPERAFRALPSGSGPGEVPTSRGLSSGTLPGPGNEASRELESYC

Chain of human GCG receptor (P47871 26-477): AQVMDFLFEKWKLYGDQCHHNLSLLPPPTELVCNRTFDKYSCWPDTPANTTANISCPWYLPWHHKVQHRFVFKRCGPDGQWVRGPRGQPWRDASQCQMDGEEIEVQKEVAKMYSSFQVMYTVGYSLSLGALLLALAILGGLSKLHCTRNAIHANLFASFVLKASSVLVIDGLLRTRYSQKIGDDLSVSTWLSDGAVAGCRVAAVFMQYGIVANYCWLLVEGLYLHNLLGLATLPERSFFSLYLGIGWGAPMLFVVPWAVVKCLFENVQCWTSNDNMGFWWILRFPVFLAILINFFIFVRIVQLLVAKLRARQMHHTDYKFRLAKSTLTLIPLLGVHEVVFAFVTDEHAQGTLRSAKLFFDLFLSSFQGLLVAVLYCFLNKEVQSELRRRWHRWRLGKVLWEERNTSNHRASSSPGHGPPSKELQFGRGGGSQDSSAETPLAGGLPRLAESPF

## {Acetyl(2-(4-imidazolyl))}-[Aib]QGTFTSDYSIAMDEIHQKDFVNWLLNTC (bridge 15-19) [Triple agonist of SEQ ID NO: 87]
[1]
  In vitro activity compared with native peptide (%) vs. GLP-1: 0.9%
[2]
  In vitro activity compared with native peptide (%) vs. Glucagon: < 0.1%
[3]
  In vitro activity compared with native peptide (%) vs. GIP: < 0.1%

## {Acetyl(2-(4-imidazolyl))}-[Aib]QGTFTSDYSKYLDEKRQKEFVQWLLNTKC (bridge 15-19) [Triple agonist of SEQ ID NO: 88]
[1]
  In vitro activity compared with native peptide (%) vs. GLP-1: 9.6%
[2]
  In vitro activity compared with native peptide (%) vs. Glucagon: 0.3%
[3]
  In vitro activity compared with native peptide (%) vs. GIP: < 0.1%

## {Acetyl(2-(4-imidazolyl))}-[Aib]QGTFTSDYSKYLDEKRQKEFVQWLLDTKC (bridge 15-19) [Triple agonist of SEQ ID NO: 89]
[1]
  In vitro activity compared with native peptide (%) vs. GLP-1: 7.1%
[2]
  In vitro activity compared with native peptide (%) vs. Glucagon: 0.7%
[3]
  In vitro activity compared with native peptide (%) vs. GIP: < 0.1%

## {Acetyl(2-(4-imidazolyl))}-[Aib]EGTFTSDYSIAMDEIHQKDFVNWLLAQKC (bridge 15-19) [Triple agonist of SEQ ID NO: 90]
[1]
  In vitro activity compared with native peptide (%) vs. GLP-1: 7.4%
[2]
  In vitro activity compared with native peptide (%) vs. Glucagon: < 0.1%
[3]
  In vitro activity compared with native peptide (%) vs. GIP: < 0.1%

## {Acetyl(2-(4-imidazolyl))}-[Aib]EGTFTSDYSIAMDEIHQKDFVDWLLAEKC (bridge 15-19) [Triple agonist of SEQ ID NO: 91]
[1]
  In vitro activity compared with native peptide (%) vs. GLP-1: 31.9%
[2]
  In vitro activity compared with native peptide (%) vs. Glucagon: 16.8%
[3]
  In vitro activity compared with native peptide (%) vs. GIP: 0.3%

## [Acetyl(2-(4-imidazolyl))][Aib]QGTFTSDYSIAMDEIHQKDFVNWLLAQKC (bridge 16-20) [Triple agonist of SEQ ID NO: 92]
[1]
  In vitro activity compared with native peptide (%) vs. GLP-1: 0.8%
[2]
  In vitro activity compared with native peptide (%) vs. Glucagon: < 0.1%
[3]
  In vitro activity compared with native peptide (%) vs. GIP: 0.4%

## {Acetyl(2-(4-imidazolyl))}-[Aib]QGTFTSDYSKYLDEKRQKEFVNWLLAQKC (bridge 15-19) [Triple agonist of SEQ ID NO: 93]
[1]
  In vitro activity compared with native peptide (%) vs. GLP-1: 5.7%
[2]
  In vitro activity compared with native peptide (%) vs. Glucagon: 0.3%
[3]
  In vitro activity compared with native peptide (%) vs. GIP: 0.7%

## {Acetyl(2-(4-imidazolyl))}-[Aib]QGTFTSDYSIAMDEIHQKDFVNWLLNTKC (bridge 15-19) [Triple agonist of SEQ ID NO: 94]
[1]
  In vitro activity compared with native peptide (%) vs. GLP-1: 0.5%
[2]
  In vitro activity compared with native peptide (%) vs. Glucagon: < 0.1%
[3]
  In vitro activity compared with native peptide (%) vs. GIP: < 0.1%

## H[Aib]QGTFTSDVSKYLDGQAAQEFVAWLLAGGGPSSGAPPPSC [Triple agonist of SEQ ID NO: 10]
[1]
  In vitro activity compared with native peptide (%) vs. GLP-1: 46%
[2]
  In vitro activity compared with native peptide (%) vs. Glucagon: < 0.1%
[3]
  In vitro activity compared with native peptide (%) vs. GIP: < 0.1%

## Y[Aib]QGTFTSDYSKYLDEKRAKEFVQWLLCHHPSSGQPPPS (bridge 16-20) [Triple agonist of SEQ ID NO: 95]
[1]
  In vitro activity compared with native peptide (%) vs. GLP-1: 2.1%
[2]
  In vitro activity compared with native peptide (%) vs. Glucagon: 0.4%
[3]
  In vitro activity compared with native peptide (%) vs. GIP: < 0.1%

## Y[Aib]QGTFTSDYSKYLDEKRAKEFVQWLLDHCPSSGQPPPS (bridge 16-20) [Triple agonist of SEQ ID NO: 96]
[1]
  In vitro activity compared with native peptide (%) vs. GLP-1: 34.4%
[2]
  In vitro activity compared with native peptide (%) vs. Glucagon: 195%
[3]
  In vitro activity compared with native peptide (%) vs. GIP: 5.2%

## Y[Aib]QGTFTSDYSKYLDEKRAKEFVQWLLDCHPSSGQPPPS (bridge 16-20) [Triple agonist of SEQ ID NO: 97]
[1]
  In vitro activity compared with native peptide (%) vs. GLP-1: 10.5%
[2]
  In vitro activity compared with native peptide (%) vs. Glucagon: 62.8%
[3]
  In vitro activity compared with native peptide (%) vs. GIP: 2.6%

## Y[Aib]QGTFTSDYSKALDEKAAKEFVNWLLDHHPSSGQPPPSC (bridge 16-20) [Triple agonist of SEQ ID NO: 98]
[1]
  In vitro activity compared with native peptide (%) vs. GLP-1: 28.1%
[2]
  In vitro activity compared with native peptide (%) vs. Glucagon: 8.2%
[3]
  In vitro activity compared with native peptide (%) vs. GIP: 47.1%

## Y[Aib]QGTFTSDYSKALDEKAAKDFVNWLLDHHPSSGQPPPSC (bridge 16-20) [Triple agonist of SEQ ID NO: 99]
[1]
  In vitro activity compared with native peptide (%) vs. GLP-1: 20.9%
[2]
  In vitro activity compared with native peptide (%) vs. Glucagon: 14.9%
[3]
  In vitro activity compared with native peptide (%) vs. GIP: 57.7%

## Y[Aib]QGTFTSDYSKALDEKAAKEFVQWLLDQHPSSGQPPPSC (bridge 16-20) [Triple agonist of SEQ ID NO: 100]
[1]
  In vitro activity compared with native peptide (%) vs. GLP-1: 42.2%
[2]
  In vitro activity compared with native peptide (%) vs. Glucagon: 12.7%
[3]
  In vitro activity compared with native peptide (%) vs. GIP: 118%

## Y[Aib]QGTFTSDYSKALDEKAAKEFVNWLLDQHPSSGQPPPSC (bridge 16-20) [Triple agonist of SEQ ID NO: 101]
[1]
  In vitro activity compared with native peptide (%) vs. GLP-1: 23.2%
[2]
  In vitro activity compared with native peptide (%) vs. Glucagon: 13.9%
[3]
  In vitro activity compared with native peptide (%) vs. GIP: 40.1%

## Y[Aib]QGTFTSDYSKALDEKAAKDFVNWLLDQHPSSGQPPPSC (bridge 16-20) [Triple agonist of SEQ ID NO: 102]
[1]
  In vitro activity compared with native peptide (%) vs. GLP-1: 23.3%
[2]
  In vitro activity compared with native peptide (%) vs. Glucagon: 29.5%
[3]
  In vitro activity compared with native peptide (%) vs. GIP: 58%

## {Acetyl(2-(4-imidazolyl))}-GEGTFTSDLSKYLDSRRQQLFVQWLKAGGPSSGAPPPSHG [Triple agonist of SEQ ID NO: 11]
[1]
  In vitro activity compared with native peptide (%) vs. GLP-1: 1.4%
[2]
  In vitro activity compared with native peptide (%) vs. Glucagon: < 0.1%
[3]
  In vitro activity compared with native peptide (%) vs. GIP: < 0.1%

## {Acetyl(2-(4-imidazolyl))}-GEGTFISDLSKYMDEQAVQLFVEWLMAGGPSSGAPPPSHG [Triple agonist of SEQ ID NO: 12]
[1]
  In vitro activity compared with native peptide (%) vs. GLP-1: 0.4%
[2]
  In vitro activity compared with native peptide (%) vs. Glucagon: < 0.1%
[3]
  In vitro activity compared with native peptide (%) vs. GIP: < 0.1%

## {Acetyl(2-(4-imidazolyl))}-GEGTFISDYSIQLDEIAVQDFVEWLLAQKPSSGAPPPSHG [Triple agonist of SEQ ID NO: 13]
[1]
  In vitro activity compared with native peptide (%) vs. GLP-1: < 0.1%
[2]
  In vitro activity compared with native peptide (%) vs. Glucagon: < 0.1%
[3]
  In vitro activity compared with native peptide (%) vs. GIP: < 0.1%

## H[Aib]QGTFTSDVSSYLDGQAQKEFIAWLVKGC [Triple agonist of SEQ ID NO: 2]
[1]
  In vitro activity compared with native peptide (%) vs. GLP-1: 5.9%
[2]
  In vitro activity compared with native peptide (%) vs. Glucagon: < 0.1%
[3]
  In vitro activity compared with native peptide (%) vs. GIP: < 0.1%

## {Acetyl(2-(4-imidazolyl))}-GQGTFTSDYSIQLDEIAVRDFVEWLKNGGPSSGAPPPSHG [Triple agonist of SEQ ID NO: 14]
[1]
  In vitro activity compared with native peptide (%) vs. GLP-1: 28%
[2]
  In vitro activity compared with native peptide (%) vs. Glucagon: < 0.1%
[3]
  In vitro activity compared with native peptide (%) vs. GIP: < 0.1%

## {Acetyl(2-(4-imidazolyl))}-GQGTFTSDLSKQMDSEAQQLFIEWLKNGGPSSGAPPPSHG [Triple agonist of SEQ ID NO: 16]
[1]
  In vitro activity compared with native peptide (%) vs. GLP-1: 2.1%
[2]
  In vitro activity compared with native peptide (%) vs. Glucagon: < 0.1%
[3]
  In vitro activity compared with native peptide (%) vs. GIP: < 0.1%

## {Acetyl(2-(4-imidazolyl))}-GQGTFTSDLSKQMDEERAREFIEWLLAQKPSSGAPPPSHG [Triple agonist of SEQ ID NO: 17]
[1]
  In vitro activity compared with native peptide (%) vs. GLP-1: 0.2%
[2]
  In vitro activity compared with native peptide (%) vs. Glucagon: < 0.1%
[3]
  In vitro activity compared with native peptide (%) vs. GIP: < 0.1%

## [Acetyl(2-(4-imidazolyl))]GQGTFTSDLSKQMDSERAREFIEWLKNTGPSSGAPPPSHG [Triple agonist of SEQ ID NO: 18]
[1]
  In vitro activity compared with native peptide (%) vs. GLP-1: < 0.1%
[2]
  In vitro activity compared with native peptide (%) vs. Glucagon: < 0.1%
[3]
  In vitro activity compared with native peptide (%) vs. GIP: < 0.1%

## [Acetyl(2-(4-imidazolyl))]GQGTFTSDLSIQYDSEHQRDFIEWLKDTGPSSGAPPPSHG [Triple agonist of SEQ ID NO: 19]
[1]
  In vitro activity compared with native peptide (%) vs. GLP-1: < 0.1%
[2]
  In vitro activity compared with native peptide (%) vs. Glucagon: < 0.1%
[3]
  In vitro activity compared with native peptide (%) vs. GIP: < 0.1%

## [Acetyl(2-(4-imidazolyl))]GQGTFTSDLSIQYEEEAQQDFVEWLKDTGPSSGAPPPSHG [Triple agonist of SEQ ID NO: 20]
[1]
  In vitro activity compared with native peptide (%) vs. GLP-1: < 0.1%
[2]
  In vitro activity compared with native peptide (%) vs. Glucagon: < 0.1%
[3]
  In vitro activity compared with native peptide (%) vs. GIP: < 0.1%

## Y[Aib]QGTFTSDYSKYLDECRAKEFVQWLLDHHPSSGQPPPS (bridge 16-20) [Triple agonist of SEQ ID NO: 21]
[1]
  In vitro activity compared with native peptide (%) vs. GLP-1: 17.8%
[2]
  In vitro activity compared with native peptide (%) vs. Glucagon: 267%
[3]
  In vitro activity compared with native peptide (%) vs. GIP: 22.7%

Reference: US20240024426A1, “HYPOTENSIVE PHARMACEUTICAL COMPOSITION COMPRISING TRIPLE ACTIVATOR HAVING ACTIVITY FOR ALL OF GLUCAGON, GLP-1, AND GIP RECEPTORS” (HANMI PHARM. CO., LTD., priority 2020, published 2024)
